Measured values taken from US20180303952A1 (CYTOMX THERAPEUTICS, published 2018).

T1: human CD147 protein (adsorbed to ELISA plates) (human, UniProt P35613-2 22-205, limits assumed)
T1 construct: also called human CD147 polypeptide; Basigin
T1 sequence (looked up): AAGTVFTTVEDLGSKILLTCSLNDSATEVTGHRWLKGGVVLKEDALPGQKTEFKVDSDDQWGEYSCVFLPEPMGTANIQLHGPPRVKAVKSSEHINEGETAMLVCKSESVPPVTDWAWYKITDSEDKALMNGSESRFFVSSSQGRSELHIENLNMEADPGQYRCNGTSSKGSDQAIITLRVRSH

B1: anti-human CD147 activatable antibody hu 3A11 Hc1/Lc1-217-3001 (antibody)
VH: EVQLVESGGGLVQPGGSLRLSCAASGFTFSNYWMDWVRQAPGKGLEWVGEIRLKSYNYATHYAASVKGRFTISRDDSKNSVYLQMNSLKTEDTAVYYCTAAGTDYWGQGTLVTVSS
VL: QSLFCSGFRCDQYASGGGSSGGSAVGLLAPPGGLSGRSDNHGGSDIQMTQSPSSLSASVGDRVTITCRASQSVRTDVGWYQQKPGKAPKLLIYYSSNRYTGVPSRFSGSGSGTDFTLTISSLQPEDFATYYCQQDYSSPYTFGQGTKLEIK
notes: also called hu 3A11-217-3001
B2: anti-human CD147 activatable antibody hu 3A11 Hc1/Lc1-419-3001 (antibody)
VH: EVQLVESGGGLVQPGGSLRLSCAASGFTFSNYWMDWVRQAPGKGLEWVGEIRLKSYNYATHYAASVKGRFTISRDDSKNSVYLQMNSLKTEDTAVYYCTAAGTDYWGQGTLVTVSS
VL: LHGPCHYDLKCKNNTGGGSSGGSAVGLLAPPGGLSGRSDNHGGSDIQMTQSPSSLSASVGDRVTITCRASQSVRTDVGWYQQKPGKAPKLLIYYSSNRYTGVPSRFSGSGSGTDFTLTISSLQPEDFATYYCQQDYSSPYTFGQGTKLEIK
notes: also called hu 3A11-419-3001
B3: anti-human CD147 activatable antibody hu 3A11 Hc1/Lc1-215-3001 (antibody)
VH: EVQLVESGGGLVQPGGSLRLSCAASGFTFSNYWMDWVRQAPGKGLEWVGEIRLKSYNYATHYAASVKGRFTISRDDSKNSVYLQMNSLKTEDTAVYYCTAAGTDYWGQGTLVTVSS
VL: RYQSCHSYWCTEGNHGGGSSGGSAVGLLAPPGGLSGRSDNHGGSDIQMTQSPSSLSASVGDRVTITCRASQSVRTDVGWYQQKPGKAPKLLIYYSSNRYTGVPSRFSGSGSGTDFTLTISSLQPEDFATYYCQQDYSSPYTFGQGTKLEIK
notes: also called hu 3A11-215-3001
B4: anti-human CD147 activatable antibody hu 3A11 Hc1/Lc1-221-3001 (antibody)
VH: EVQLVESGGGLVQPGGSLRLSCAASGFTFSNYWMDWVRQAPGKGLEWVGEIRLKSYNYATHYAASVKGRFTISRDDSKNSVYLQMNSLKTEDTAVYYCTAAGTDYWGQGTLVTVSS
VL: DHGPCHYVSCTTINHGGGSSGGSAVGLLAPPGGLSGRSDNHGGSDIQMTQSPSSLSASVGDRVTITCRASQSVRTDVGWYQQKPGKAPKLLIYYSSNRYTGVPSRFSGSGSGTDFTLTISSLQPEDFATYYCQQDYSSPYTFGQGTKLEIK
notes: also called hu 3A11-221-3001
B5: anti-human CD147 activatable antibody hu 3A11 Hc1/Lc1-253-3001 (antibody)
VH: EVQLVESGGGLVQPGGSLRLSCAASGFTFSNYWMDWVRQAPGKGLEWVGEIRLKSYNYATHYAASVKGRFTISRDDSKNSVYLQMNSLKTEDTAVYYCTAAGTDYWGQGTLVTVSS
VL: VHGPCHWSVECLSNVGGGSSGGSAVGLLAPPGGLSGRSDNHGGSDIQMTQSPSSLSASVGDRVTITCRASQSVRTDVGWYQQKPGKAPKLLIYYSSNRYTGVPSRFSGSGSGTDFTLTISSLQPEDFATYYCQQDYSSPYTFGQGTKLEIK
notes: also called hu 3A11-253-3001
B6: anti-human CD147 activatable antibody hu 3A11 Hc1/Lc1-415-3001 (antibody)
VH: EVQLVESGGGLVQPGGSLRLSCAASGFTFSNYWMDWVRQAPGKGLEWVGEIRLKSYNYATHYAASVKGRFTISRDDSKNSVYLQMNSLKTEDTAVYYCTAAGTDYWGQGTLVTVSS
VL: LHGPCHFNNCNTLKLGGGSSGGSAVGLLAPPGGLSGRSDNHGGSDIQMTQSPSSLSASVGDRVTITCRASQSVRTDVGWYQQKPGKAPKLLIYYSSNRYTGVPSRFSGSGSGTDFTLTISSLQPEDFATYYCQQDYSSPYTFGQGTKLEIK
notes: also called hu 3A11-415-3001
B7: anti-human CD147 activatable antibody hu 3A11 Hc1/Lc1-422-3001 (antibody)
VH: EVQLVESGGGLVQPGGSLRLSCAASGFTFSNYWMDWVRQAPGKGLEWVGEIRLKSYNYATHYAASVKGRFTISRDDSKNSVYLQMNSLKTEDTAVYYCTAAGTDYWGQGTLVTVSS
VL: LHGPCHYMNTCHNVKGGGSSGGSAVGLLAPPGGLSGRSDNHGGSDIQMTQSPSSLSASVGDRVTITCRASQSVRTDVGWYQQKPGKAPKLLIYYSSNRYTGVPSRFSGSGSGTDFTLTISSLQPEDFATYYCQQDYSSPYTFGQGTKLEIK
notes: also called hu 3A11-422-3001
B8: anti-human CD147 activatable antibody hu 3A11 Hc1/Lc1-428-3001 (antibody)
VH: EVQLVESGGGLVQPGGSLRLSCAASGFTFSNYWMDWVRQAPGKGLEWVGEIRLKSYNYATHYAASVKGRFTISRDDSKNSVYLQMNSLKTEDTAVYYCTAAGTDYWGQGTLVTVSS
VL: WHGPCHYTKCDDHTMGGGSSGGSAVGLLAPPGGLSGRSDNHGGSDIQMTQSPSSLSASVGDRVTITCRASQSVRTDVGWYQQKPGKAPKLLIYYSSNRYTGVPSRFSGSGSGTDFTLTISSLQPEDFATYYCQQDYSSPYTFGQGTKLEIK
notes: also called hu 3A11-428-3001
B9: anti-human CD147 activatable antibody hu 3A11 Hc1/Lc1-443-3001 (antibody)
VH: EVQLVESGGGLVQPGGSLRLSCAASGFTFSNYWMDWVRQAPGKGLEWVGEIRLKSYNYATHYAASVKGRFTISRDDSKNSVYLQMNSLKTEDTAVYYCTAAGTDYWGQGTLVTVSS
VL: AHGPCHYNTECNSNKGGGSSGGSAVGLLAPPGGLSGRSDNHGGSDIQMTQSPSSLSASVGDRVTITCRASQSVRTDVGWYQQKPGKAPKLLIYYSSNRYTGVPSRFSGSGSGTDFTLTISSLQPEDFATYYCQQDYSSPYTFGQGTKLEIK
notes: also called hu 3A11-443-3001
B10: anti-human CD147 activatable antibody hu 3A11 Hc1/Lc1-445-3001 (antibody)
VH: EVQLVESGGGLVQPGGSLRLSCAASGFTFSNYWMDWVRQAPGKGLEWVGEIRLKSYNYATHYAASVKGRFTISRDDSKNSVYLQMNSLKTEDTAVYYCTAAGTDYWGQGTLVTVSS
VL: SHGPCHFDYQCINNTGGGSSGGSAVGLLAPPGGLSGRSDNHGGSDIQMTQSPSSLSASVGDRVTITCRASQSVRTDVGWYQQKPGKAPKLLIYYSSNRYTGVPSRFSGSGSGTDFTLTISSLQPEDFATYYCQQDYSSPYTFGQGTKLEIK
notes: also called hu 3A11-445-3001
B11: anti-human CD147 activatable antibody hu 3A11 Hc1/Lc1-416-3001 (antibody)
VH: EVQLVESGGGLVQPGGSLRLSCAASGFTFSNYWMDWVRQAPGKGLEWVGEIRLKSYNYATHYAASVKGRFTISRDDSKNSVYLQMNSLKTEDTAVYYCTAAGTDYWGQGTLVTVSS
VL: WQRECSQKNICQYYIGGGSSGGSAVGLLAPPGGLSGRSDNHGGSDIQMTQSPSSLSASVGDRVTITCRASQSVRTDVGWYQQKPGKAPKLLIYYSSNRYTGVPSRFSGSGSGTDFTLTISSLQPEDFATYYCQQDYSSPYTFGQGTKLEIK
notes: also called hu 3A11-416-3001
B12: anti-human CD147 activatable antibody hu 3A11 Hc1/Lc1-440-3001 (antibody)
VH: EVQLVESGGGLVQPGGSLRLSCAASGFTFSNYWMDWVRQAPGKGLEWVGEIRLKSYNYATHYAASVKGRFTISRDDSKNSVYLQMNSLKTEDTAVYYCTAAGTDYWGQGTLVTVSS
VL: TCLHLTRFNYLSCNKGGGSSGGSAVGLLAPPGGLSGRSDNHGGSDIQMTQSPSSLSASVGDRVTITCRASQSVRTDVGWYQQKPGKAPKLLIYYSSNRYTGVPSRFSGSGSGTDFTLTISSLQPEDFATYYCQQDYSSPYTFGQGTKLEIK
notes: also called hu 3A11-440-3001
B13: anti-human CD147 activatable antibody hu 3A11 Hc1/Lc1-216-3001 (antibody)
VH: EVQLVESGGGLVQPGGSLRLSCAASGFTFSNYWMDWVRQAPGKGLEWVGEIRLKSYNYATHYAASVKGRFTISRDDSKNSVYLQMNSLKTEDTAVYYCTAAGTDYWGQGTLVTVSS
VL: HGPCHYNFNSGCAQFGGGSSGGSAVGLLAPPGGLSGRSDNHGGSDIQMTQSPSSLSASVGDRVTITCRASQSVRTDVGWYQQKPGKAPKLLIYYSSNRYTGVPSRFSGSGSGTDFTLTISSLQPEDFATYYCQQDYSSPYTFGQGTKLEIK
notes: also called hu 3A11-216-3001
B14: anti-human CD147 activatable antibody hu 3A11 Hc1/Lc1-414.2-3001 (antibody)
VH: EVQLVESGGGLVQPGGSLRLSCAASGFTFSNYWMDWVRQAPGKGLEWVGEIRLKSYNYATHYAASVKGRFTISRDDSKNSVYLQMNSLKTEDTAVYYCTAAGTDYWGQGTLVTVSS
VL: THGPCHFKPQCSYPTGGGSSGGSAVGLLAPPGGLSGRSDNHGGSDIQMTQSPSSLSASVGDRVTITCRASQSVRTDVGWYQQKPGKAPKLLIYYSSNRYTGVPSRFSGSGSGTDFTLTISSLQPEDFATYYCQQDYSSPYTFGQGTKLEIK
notes: also called hu 3A11-414.2-3001
B15: anti-human CD147 activatable antibody hu 3A11 Hc1/Lc1-414.3-3001 (antibody)
VH: EVQLVESGGGLVQPGGSLRLSCAASGFTFSNYWMDWVRQAPGKGLEWVGEIRLKSYNYATHYAASVKGRFTISRDDSKNSVYLQMNSLKTEDTAVYYCTAAGTDYWGQGTLVTVSS
VL: THGPCHFKPNCAYPTGGGSSGGSAVGLLAPPGGLSGRSDNHGGSDIQMTQSPSSLSASVGDRVTITCRASQSVRTDVGWYQQKPGKAPKLLIYYSSNRYTGVPSRFSGSGSGTDFTLTISSLQPEDFATYYCQQDYSSPYTFGQGTKLEIK
notes: also called hu 3A11-414.3-3001
B16: anti-human CD147 activatable antibody hu 3A11 Hc1/Lc1-419.1-3001 (antibody)
VH: EVQLVESGGGLVQPGGSLRLSCAASGFTFSNYWMDWVRQAPGKGLEWVGEIRLKSYNYATHYAASVKGRFTISRDDSKNSVYLQMNSLKTEDTAVYYCTAAGTDYWGQGTLVTVSS
VL: LHGPCHYDLKCKQNTGGGSSGGSAVGLLAPPGGLSGRSDNHGGSDIQMTQSPSSLSASVGDRVTITCRASQSVRTDVGWYQQKPGKAPKLLIYYSSNRYTGVPSRFSGSGSGTDFTLTISSLQPEDFATYYCQQDYSSPYTFGQGTKLEIK
notes: also called hu 3A11-419.1-3001
B17: anti-human CD147 activatable antibody hu 3A11 Hc1/Lc1-414.1-3001 (antibody, V domains shown)
VH: EVQLVESGGGLVQPGGSLRLSCAASGFTFSNYWMDWVRQAPGKGLEWVGEIRLKSYNYATHYAASVKGRFTISRDDSKNSVYLQMNSLKTEDTAVYYCTAAGTDYWGQGTLVTVSS
VL: THGPCHFKPNCGGGSSGGSAVGLLAPPGGLSGRSDNHGGSDIQMTQSPSSLSASVGDRVTITCRASQSVRTDVGWYQQKPGKAPKLLIYYSSNRYTGVPSRFSGSGSGTDFTLTISSLQPEDFATYYCQQDYSSPYTFGQGTKLEIK
notes: also called hu 3A11-414.1-3001

biological target: T1, human CD147 protein (adsorbed to ELISA …); test: ELISA, human CD147 protein adsorbed to plate, intact activatable antibody; apparent KD
Procedure: Humanized anti-human CD147 antibodies of the present disclosure hu 3A11 Hc1/Lc1 (VL of SEQ ID NO: 5 and VH of SEQ ID NO: 1) were used as a control.
(§1) Using a standard ELISA protocol, human CD147 protein was absorbed to ELISA plates and subsequently incubated with the indicated concentration of antibody of the present disclosure. Bound humanized activatable antibody of the present disclosure was detected with anti-human Fab-peroxidase secondary antibody and Ultra TMB detection (Thermo Fisher Scientific).

In order of rising Kd:
1. B11  0.49 nM
2. B5  0.87 nM
3. B13  0.89 nM
4. B12  1.23 nM
5. B7  1.55 nM
6. B1  1.61 nM
7. B4  2.5 nM
8. B6  4.72 nM
9. B3  5.53 nM
10. B9  7.4 nM
11. B8  7.63 nM
12. B10  7.86 nM
13. B2  9.43 nM

biological target: T1, human CD147 protein (adsorbed to ELISA …); test: as above; remark: another data set of the same source
Procedure: as §1, with “For the exemplary assay depicted in FIGS. 7A-7C,” for “Using a”, “protocol was used, in which” for “protocol,”

In order of falling Kd:
1. B16  44 nM
2. B15  20.2 nM
3. B14  15.7 nM
4. B17  13.8 nM
